{"source": "patent US6180103A", "about": "“Peptide p277 analogs, and pharmaceutical compositions comprising them for treatment or diagnosis of diabetes” (Yeda Research and Development Co., Ltd., priority 1994, dated 2001)", "molecules": {"B1": {"name": "hsp60: whole recombinant hsp60; human 60 kDa heat shock protein (protein, UniProt P10809 27-573, looked up)", "60 kDa heat shock protein, …": "AKDVKFGADARALMLQGVDLLADAVAVTMGPKGRTVIIEQSWGSPKVTKDGVTVAKSIDLKDKYKNIGAKLVQDVANNTNEEAGDGTTTATVLARSIAKEGFEKISKGANPVEIRRGVMLAVDAVIAELKKQSKPVTTPEEIAQVATISANGDKEIGNIISDAMKKVGRKGVITVKDGKTLNDELEIIEGMKFDRGYISPYFINTSKGQKCEFQDAYVLLSEKKISSIQSIVPALEIANAHRKPLVIIAEDVDGEALSTLVLNRLKVGLQVVAVKAPGFGDNRKNQLKDMAIATGGAVFGEEGLTLNLEDVQPHDLGKVGEVIVTKDDAMLLKGKGDKAQIEKRIQEIIEQLDVTTSEYEKEKLNERLAKLSDGVAVLKVGGTSDVEVNEKKDRVTDALNATRAAVEEGIVLGGGCALLRCIPALDSLTPANEDQKIGIEIIKRTLKIPAMTIAKNAGVEGSLIVEKIMQSSSEVGYDAMAGDFVNMVEKGIIDPTKVVRTALLDAAGVASLLTTAEVVVTEIPKEEKDPGMGAMGGMGGGMGGGMF"}}, "tested_on": "T cells of IDDM patients and healthy blood-donors", "assay": "Proliferative T cell response of IDDM patients and healthy blood donors", "format": "cell-based, human", "conditions": "for Incidence of T-cell responses: positive = SI of 3 or greater", "data": [{"molecule": "B1", "values": [{"measurement": "Incidence of T-cell responses", "setting": "Healthy blood donors (n=14)", "result": 21, "unit": "%"}, {"measurement": "T-cell responses (stimulation index)", "setting": "IDDM patient 1. patient eight, 3.5 months since diagnosis", "result": "+ (SI values of 3 or greater were considered to be positive)"}, {"measurement": "T-cell responses (stimulation index)", "setting": "IDDM patient 3. H, 6 months since diagnosis", "result": "+ (SI values of 3 or greater were considered to be positive)"}, {"measurement": "T-cell responses (stimulation index)", "setting": "IDDM patient 4. patient seven, 3 weeks since diagnosis", "result": "+ (SI values of 3 or greater were considered to be positive)"}, {"measurement": "T-cell responses (stimulation index)", "setting": "IDDM patient 4. patient seven, 5 weeks since diagnosis", "result": "+ (SI values of 3 or greater were considered to be positive)"}, {"measurement": "T-cell responses (stimulation index)", "setting": "IDDM patient 5. SD, 6 weeks since diagnosis", "result": "+ (SI values of 3 or greater were considered to be positive)"}, {"measurement": "T-cell responses (stimulation index)", "setting": "IDDM patient 6. P, 4 weeks since diagnosis", "result": "- (SI values of 3 or greater were considered to be positive)"}, {"measurement": "T-cell responses (stimulation index)", "setting": "IDDM patient 7. G, 5 weeks since diagnosis", "result": "+ (SI values of 3 or greater were considered to be positive)"}, {"measurement": "T-cell responses (stimulation index)", "setting": "IDDM patient 7. G, 7 weeks since diagnosis", "result": "+ (SI values of 3 or greater were considered to be positive)"}, {"measurement": "T-cell responses (stimulation index)", "setting": "IDDM patient 9. patient two, 2 weeks since diagnosis", "result": "+ (SI values of 3 or greater were considered to be positive)"}, {"measurement": "T-cell responses (stimulation index)", "setting": "IDDM patient 10. T, 4 weeks since diagnosis", "result": "+ (SI values of 3 or greater were considered to be positive)"}, {"measurement": "T-cell responses (stimulation index)", "setting": "IDDM patient 12. patient nine, 6 weeks since diagnosis", "result": "- (SI values of 3 or greater were considered to be positive)"}, {"measurement": "T-cell responses (stimulation index)", "setting": "IDDM patient 15. patient five, 3 weeks since diagnosis", "result": "- (SI values of 3 or greater were considered to be positive)"}, {"measurement": "T-cell responses (stimulation index)", "setting": "IDDM patient 16. patient one, 2 months since diagnosis", "result": "+ (SI values of 3 or greater were considered to be positive)"}, {"measurement": "T-cell responses (stimulation index)", "setting": "IDDM patient 17. patient six, 4 weeks since diagnosis", "result": "- (SI values of 3 or greater were considered to be positive)"}, {"measurement": "T-cell responses (stimulation index)", "setting": "IDDM patient 18. patient four, 4 weeks since diagnosis", "result": "+ (SI values of 3 or greater were considered to be positive)"}, {"measurement": "T-cell responses (stimulation index)", "setting": "IDDM patient 19. A, 11.5 years since diagnosis", "result": "+ (SI values of 3 or greater were considered to be positive)"}, {"measurement": "T-cell responses (stimulation index)", "setting": "IDDM patient 20. N, 7.5 years since diagnosis", "result": "+ (SI values of 3 or greater were considered to be positive)"}, {"measurement": "T-cell responses (stimulation index)", "setting": "IDDM patient 21. A, 5.7 years since diagnosis", "result": "+ (SI values of 3 or greater were considered to be positive)"}, {"measurement": "Incidence of T-cell responses", "setting": "IDDM patients (n=21)", "result": 86, "unit": "%"}, {"measurement": "T-cell responses (stimulation index)", "setting": "healthy blood donor 1", "result": "- (SI values of 3 or greater were considered to be positive)"}, {"measurement": "T-cell responses (stimulation index)", "setting": "healthy blood donor 2", "result": "- (SI values of 3 or greater were considered to be positive)"}, {"measurement": "T-cell responses (stimulation index)", "setting": "healthy blood donor 4", "result": "- (SI values of 3 or greater were considered to be positive)"}, {"measurement": "T-cell responses (stimulation index)", "setting": "healthy blood donor 5", "result": "+ (SI values of 3 or greater were considered to be positive)"}, {"measurement": "T-cell responses (stimulation index)", "setting": "healthy blood donor 6", "result": "- (SI values of 3 or greater were considered to be positive)"}, {"measurement": "T-cell responses (stimulation index)", "setting": "healthy blood donor 7", "result": "- (SI values of 3 or greater were considered to be positive)"}, {"measurement": "T-cell responses (stimulation index)", "setting": "healthy blood donor 8", "result": "- (SI values of 3 or greater were considered to be positive)"}, {"measurement": "T-cell responses (stimulation index)", "setting": "healthy blood donor 9", "result": "- (SI values of 3 or greater were considered to be positive)"}, {"measurement": "T-cell responses (stimulation index)", "setting": "healthy blood donor 10", "result": "- (SI values of 3 or greater were considered to be positive)"}, {"measurement": "T-cell responses (stimulation index)", "setting": "healthy blood donor 11", "result": "+ (SI values of 3 or greater were considered to be positive)"}, {"measurement": "T-cell responses (stimulation index)", "setting": "healthy blood donor 12", "result": "- (SI values of 3 or greater were considered to be positive)"}, {"measurement": "T-cell responses (stimulation index)", "setting": "healthy blood donor 13", "result": "+ (SI values of 3 or greater were considered to be positive)"}, {"measurement": "T-cell responses (stimulation index)", "setting": "healthy blood donor 14", "result": "- (SI values of 3 or greater were considered to be positive)"}]}]}
